The values below come from patent publication US11826400B2, “Neuregulin based compositions and uses thereof for preventing, treating or delaying the myocardial ischemia-reperfusion injury” (ZENSUN (SHANGHAI) SCIENCE & TECHNOLOGY LIMITED, priority 2010, dated 2023).

For the test, the system named is myocardial ischemia reperfusion in rat. Kind of test: Therapeutic effect on myocardial ischemia reperfusion in rat (coronary ligation 45 min, reperfusion 2 h, TCC staining of heart sections). Type of test: in vivo, Wistar rats. The following applies: P<0.05. The protocol: Wistar rats (male, 200˜240 g) were divided into groups and administered with different dosages of rhNRG-1, placebo or rhThymosin-β4 (as shown in Table 1) after anaesthetized with intra-abdominal injection of 20% urethane (5 ml/kg). Thirty minutes after the drug started to be given to the rats, the anterior descending limb of the left coronary artery was ligated for 45 minutes to cause partial myocardium turned white obviously in the ligation area. After that the ligation thread was loosen to keep coronary blood flow for 2 hours and then take out the heart rapidly and wash vascular fat away with normal saline, and then freeze the heart in −30° C. for one hour.
Cut the heart parallelly from apex to base along coronary sulcus to myocardium sections with the thickness of 1 mm, and then put them into TCC dye liquor for 20 min in 37° C. in a shaker. After staining extra dye was washed immediately with water, and then the sections were put into 4% formalin for one hour. Photo and analyze the total size and the infarction size of were analyzed with Image Analysis Software. Infarction size ratio equals to the ratio of the infarction size and the total size of the myocardium section.

B1: rhNRG-1: produced by Zensun (Shanghai) Science & Technology Ltd, having the amino acids of SEQ ID NO:1 (177-237 residues of NRG-1β2 isoform) (protein, listed as Homo sapiens)
chain: SHLVKCAEKEKTFCVNGGECFMVKDLSNPSRYLCKCPNEFTGDRCQNYVMASFYKAEELYQ
As for B1, the “Infarction size compared with Group A (placebo)” value is recorded as “significantly smaller than that of Group A” (Group B, 10 μg/kg/h continuous infusion) and “significantly smaller than that of Group A” (Group C, 30 μg/kg/h continuous infusion).
